In article PMC4506568, “Targeting a Dynamic Protein–Protein Interaction: Fragment Screening against the Malaria Myosin A Motor Complex” (Chemmedchem, 2014):
Where no end group is shown, it is not given here. 8e = not defined here

T1: Plasmodium falciparum myosin A tail domain interacting protein, residues 61–204 (PfMTIPΔ60) (Plasmodium falciparum, UniProt Q8I4W8 61-204)
T1 construct: source: 15N-labeled for NMR; not shown: His tag, N-terminal, kept
T1 sequence: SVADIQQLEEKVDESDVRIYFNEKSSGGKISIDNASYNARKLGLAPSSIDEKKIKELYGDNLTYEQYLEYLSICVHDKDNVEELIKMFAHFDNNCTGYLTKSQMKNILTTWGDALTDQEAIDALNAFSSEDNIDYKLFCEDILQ

B1: peptide–fragment chimera2 (fragment 8 functionality – glycine spacer – myoA tail from Leu 804) (peptide)
peptide: 8e-GLLRVQAHIRKKMVAQ
modifications: reading uncertain
notes: myosin A (PfmyoA) C-terminal tail, Plasmodium falciparum, PfmyoA(799–818) truncated at its N-terminal end to Leu 804; source: synthetic peptide (Fmoc-based solid-phase peptide synthesis)
B2: peptide PfmyoA(803–818) (peptide)
peptide: SLLRVQAHIRKKMVAQ
notes: myosin A (PfmyoA) C-terminal tail, Plasmodium falciparum, residues 803–818; also called PfmyoA tail peptide; positive control PfmyoA tail peptide
B3: peptide–fragment chimera1 (fragment 8 functionality – glycine spacer – myoA tail from Leu 805) (peptide)
peptide: 8e-GLRVQAHIRKKMVAQ
modifications: reading uncertain
notes: myosin A (PfmyoA) C-terminal tail, Plasmodium falciparum, PfmyoA(799–818) truncated at its N-terminal end to Leu 805; called the shortest chimera; source: synthetic peptide (Fmoc-based solid-phase peptide synthesis)
B4: PfmyoA(799–818) (peptide)
peptide: KNIPSLLRVQAHIRKKMVAQ
notes: myosin A (PfmyoA) C-terminal tail, Plasmodium falciparum, residues 799–818; also called myoA tail; myoA tail peptide
B5: peptide–fragment chimera3 (fragment 8 functionality – glycine spacer – myoA tail from Ser 803) (peptide)
peptide: 8e-GSLLRVQAHIRKKMVAQ
modifications: reading uncertain
notes: myosin A (PfmyoA) C-terminal tail, Plasmodium falciparum, PfmyoA(799–818) truncated at its N-terminal end to Ser 803; that chimera3 begins at Ser 803 follows from the order of the list (Leu 805, Leu 804, Ser 803); source: synthetic peptide (Fmoc-based solid-phase peptide synthesis)

Tests used:
Settings in all cases: both partners purified
[1] = biological target: T1, Plasmodium falciparum myosin A tail …; experiment: differential scanning fluorimetry; 5 μM PfMTIPΔ60 with 200 μM peptide in buffer A (20 mM HEPES pH 7.5, 50 mM NaCl, 1 mM TCEP), 10× SYPRO Orange, 15–80 °C
[2] = biological target: T1, Plasmodium falciparum myosin A tail …; experiment: protein-detected NMR (1H,15N-HSQC); preformed complex of 100 μM 15N-labeled PfMTIPΔ60 with PfmyoA(799–818), buffer B (20 mM MOPS pH 7.0, 50 mM NaCl, 1 mM TCEP), 10 % D2O, 303 K; fragments 8 or 3 added
[3] = biological target: T1, Plasmodium falciparum myosin A tail …; experiment: ITC; 303 K; cell with about 200 μL of 20 μM PfMTIPΔ60 in buffer A (20 mM HEPES pH 7.5, 50 mM NaCl, 1 mM TCEP); peptide added in 2 μL injections from 250 μM; single site fit; n=1

| Binder | Tm of the complex [1] [°C] | also measured |
| --- | --- | --- |
| B1 | 53.4 |  |
| B2 |  | ΔTm [1]: 15.3 °C |
| B3 | 47.8 |  |
| B4 |  | binding result [2]: binds |
| B5 | 55.8 | Kd [3]: 52 nM |
